Laboratory results: patent publication US20240262929A1 (IBIO, published 2024)
Blank lines part the entries; values can stand above or below the binder they belong to.

Tests used:
[1] = molecular target: T1, 230-mer MUC16 shed domain (UniProt Q8WXI7 14164-14393, biotinylated for the Octet assay); experiment: binding graphs of FIG. 10 (presumably BLI as for FIG. 5A)
T1 construct: domain: 230-mer MUC16 shed domain
T1 sequence: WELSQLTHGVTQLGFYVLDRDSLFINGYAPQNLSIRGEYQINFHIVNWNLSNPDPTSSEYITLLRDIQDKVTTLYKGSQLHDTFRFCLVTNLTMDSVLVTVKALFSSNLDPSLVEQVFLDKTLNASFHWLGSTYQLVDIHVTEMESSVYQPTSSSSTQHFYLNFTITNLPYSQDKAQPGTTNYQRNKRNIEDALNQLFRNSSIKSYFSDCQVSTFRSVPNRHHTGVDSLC

[2] = molecular target: T2, engineered epitope 2, 29-mer of MUC16 non-shed domain, aglycosylated (aglycosylated (produced synthetically); biotinylated for the Octet assay); experiment: as above
T2 peptide: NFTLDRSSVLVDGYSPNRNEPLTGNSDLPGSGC

[3] = molecular target: T3, engineered epitope 1, 58-mer of MUC16 non-shed domain, glycosylated (N-glycosylated (expressed in mammalian cells, used in glycosylated form); biotinylated for the Octet assay); experiment: ELISA; table columns appear swapped relative to plotted curves
T3 peptide: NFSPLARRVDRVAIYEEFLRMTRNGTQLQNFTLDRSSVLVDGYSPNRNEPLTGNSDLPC

[4] = molecular target: T4, engineered epitope 2, 29-mer of MUC16 non-shed domain, aglycosylated (aglycosylated (produced synthetically); biotinylated for the Octet assay); experiment: as above
T4 peptide: T2 peptide

[5] = molecular target: T5, engineered epitope 1, 58-mer of MUC16 non-shed domain, glycosylated (N-glycosylated (expressed in mammalian cells, used in glycosylated form); biotinylated for the Octet assay); experiment: hybridoma ELISA screen / dose-response (FIG. 8)
T5 peptide: T3 peptide

[6] = molecular target: T6, MUC16 on OVCAR-3 (MUC16high) and SKOV-3 (MUC16low) ovarian cancer cells (UniProt Q8WXI7 1-14507, limits assumed); experiment: cell binding on OVCAR3 cells (FIG. 9A)
T6 construct: whole, on cells; also called MUC16high cells; MUC16low cells

[7] = molecular target: T5, engineered epitope 1, 58-mer of MUC16 …; experiment: ELISA dose-response (FIG. 3)
[8] = molecular target: T2, engineered epitope 2, 29-mer of MUC16 …; experiment: ELISA dose-response (FIG. 3)
[9] = molecular target: T3, engineered epitope 1, 58-mer of MUC16 …; experiment: ELISA
[10] = molecular target: T4, engineered epitope 2, 29-mer of MUC16 …; experiment: ELISA
[11] = molecular target: T1, 230-mer MUC16 shed domain; experiment: BLI (Octet), biotinylated 230-mer shed domain on streptavidin biosensor, increasing concentrations of purified antibody
Method: Methods: Biotinylated 29-mer engineered epitope, glycosylated 58-mer engineered epitope, 230-mer MUC16 shed domain and 288-mer MUC16 extra-cellular domain were immobilized on a Pall Octet 384-Red streptavidin biosensor. Immobilized biosensor tips were dipped into increasing concentration of purified antibody with a 4 minute association followed by a 3 minute dissociation.

[12] = molecular target: T6, MUC16 on OVCAR-3 (MUC16high) and SKOV-3 …; experiment: flow cytometry, hybridoma supernatant on OVCAR-3 or SKOV-3 cells (FIG. 5B)
Method: Methods: Hybridoma supernatants were diluted 1:2 into FACS buffer containing OVCAR-3 or SKOV-3 cells and incubated for 30 minutes, then washed once with FACS buffer. 2 ug/mL APC labeled goat anti-mouse Fc secondary antibody diluted in FACS buffer was added to the cells and incubated for 20 minutes, then washed once with FACS buffer. Flow cytometry was performed with 20,000 cells per sample.

[13] = molecular target: T5, engineered epitope 1, 58-mer of MUC16 …; experiment: ELISA dose-response (FIG. 6)
[14] = molecular target: T2, engineered epitope 2, 29-mer of MUC16 …; experiment: ELISA dose-response (FIG. 6)
[15] = molecular target: T1, 230-mer MUC16 shed domain; experiment: binding graphs of FIG. 7A (presumably BLI as for FIG. 5A)
[16] = molecular target: T6, MUC16 on OVCAR-3 (MUC16high) and SKOV-3 …; experiment: flow cytometry on MUC16high and MUC16low cells (FIG. 7B)
[17] = molecular target: T3, engineered epitope 1, 58-mer of MUC16 …; experiment: ELISA
[18] = molecular target: T4, engineered epitope 2, 29-mer of MUC16 …; experiment: ELISA

binding result [1]: no binding | binding result [2]: binds | EC50 [3]: 0.68 nM | EC50 [4]: 3.4 nM | binding result [5]: binds | binding result [6]: binds
B1: 21G6 anti-MUC16 clone (antibody, V domains shown)
VH: EVQLEESGPGLVKPSQSLSLTCTVTGYSITSDYAWNWIRQFPGNKLEWMGYISYSGSTIYNPSLKSRISITRDTSKNQFFLHLNSVTTEDTATYYCATLGLDYWGQGTTLTVSS
VL: DFVMTQSPSSLAVSVGEKVTMSCKSSQSLLYSSNQKNYLAWYQQKPGQSPKLLIYWASTRGSGVPDRFTGSGSGTDFTLTISSVKAEDLAVYYCQQYHSYRTFGGGTKLEIK
notes: Hybridoma antibody from immunized Balb/c mice; also called clone 21G6

binding result [7]: binds | binding result [8]: binds | EC50 [9]: 0.51 nM | EC50 [10]: 0.56 nM | binding result [11]: no binding | binding result [12]: binds
B2: 1D7 anti-MUC16 clone (antibody, V domains shown)
VH: EVMLVESGGGLVKPGGSLKLSCVASGFTFSSFAMSWVRQTPEKRLEWVAIISSGGGYIYYADSMTGRFTISRDNAKNTLYLQMSSLRSEDTAMYYCARLGGDYDEFYAKDYWGQGTSVTVSS
VL: DIQMTQSSSSFSVSLGDRVTITCKASEDIYNRLAWYQQKPGNAPRLLISGATSLETGVPSRFSGSGSGKDYTLSITSLQTEDVATYYCQQYWSTWTFGGGTKLEIK
notes: Hybridoma antibody from immunized Balb/c mice; Used as purified antibody in BLI and as hybridoma supernatant in flow cytometry; also called clone 1D7

binding result [13]: binds | binding result [14]: binds | binding result [15]: no binding | binding result [16]: binds | EC50 [17]: 0.19 nM | EC50 [18]: 0.23 nM
B3: 8G4 anti-MUC16 clone (antibody, V domains shown)
VH: QIQLVQSGPELKMPGETVKISCKASGYTFTNFGMNWVKQAPGKALKWMGWINTNTGKPTYFEEFKGRFAFSLETSASTAYLQINNLKNEDTATYFCARRWDRSAWFAYWGQGTLVTVSA
VL: QAVVTQESALTTSPGETVTLTCRSSTGAVTTSNYANWVQEKPDHLFTGLIGGTNDRSPGVPARFSGSLIGDKAALTITGAQTEDEAIYFCALWYSNHWVFGGGTKLTVL
notes: Hybridoma antibody from immunized Balb/c mice; also called clone 8G4
